Target: Fbxw7 (UniProt Q969H0)
Experiment: anti-FLAG co-IP, HSF1 immunoblot
Conditions: reference: wild type HSF1; sites S303

binding against the reference: weaker
Substance: HSF1 (from UniProt Q00613) HSF1 S303A
